Reference: article PMC7517009, “Variants of the human RAD52 gene confer defects in ionizing radiation resistance and homologous recombination repair in budding yeast” (Microbial Cell, 2020)
“And” between values parts separate entries of the source, which are not always exact repeats. Equal entries are not always repeated.

Tests used:
[1] = target: the molecule itself; assay: SEC; Superdex 200 in 10 mM Tris HCl, 300 mM NaCl, 2 mM BME, pH 8.0, 0.5 mL/min; size of the multimer estimated from the elution volume
[2] = target: the molecule itself; assay: two-hybrid; Gal4 DNA-binding domain (pGBT9) and Gal4 transcription activation domain (pGAD424) fusions in yeast strain Y187; beta-galactosidase specific activity in cell extracts, Miller units

Protein	stoichiometry N [1]	beta-galactosidase activity, fold above background [2]
HsRAD52_(1-212), the N-terminal 212 amino acids of HsRAD52 (domain or fragment, human, UniProt P43351 1-212, looked up, RAD52, human, N-terminal 212 amino acids (1-212); pET28b construct; also called pLAY855; source: E. coli Artic Express, purified (Ni-NTA, heparin, Superdex 200)) MSGTEEAILGGRDSHPAAGGGSVLCFGQCQYTAEEYQAIQKALRQRLGPEYISSRMAGGGQKVCYIEGHRVINLANEMFGYNGWAHSITQQNVDFVDLNNGKFYVGVCAFVRVQLKDGSYHEDVGYGVSEGLKSKALSLEKARKEAVTDGLKRALRSFGNALGNCILDKDYLRSLNKLPRQLPLEVDLTKAKRQDLEPSVEEARYNSCRPNM	13 subunits and 14 subunits	
HsRAD52-G59R_(1-212), the N-terminal 212 amino acids of HsRAD52-G59R (domain or fragment, human, UniProt P43351 1-212, looked up, RAD52, human, N-terminal 212 amino acids (1-212) with the naturally occurring variant G59R; pET28b construct; also called pLAY971; source: E. coli Artic Express, purified (Ni-NTA, heparin, Superdex 200)) MSGTEEAILGGRDSHPAAGGGSVLCFGQCQYTAEEYQAIQKALRQRLGPEYISSRMAGRGQKVCYIEGHRVINLANEMFGYNGWAHSITQQNVDFVDLNNGKFYVGVCAFVRVQLKDGSYHEDVGYGVSEGLKSKALSLEKARKEAVTDGLKRALRSFGNALGNCILDKDYLRSLNKLPRQLPLEVDLTKAKRQDLEPSVEEARYNSCRPNM	13 subunits and 14 subunits	
HsRAD52-S346X, His-tagged, bacterially expressed (domain or fragment, human, UniProt P43351 1-345, looked up, RAD52, human, naturally occurring truncating variant S346X (stop codon in place of S346); pET28b construct; also called pLAY970; source: E. coli Artic Express, purified (Ni-NTA, heparin, Superdex 200)) MSGTEEAILGGRDSHPAAGGGSVLCFGQCQYTAEEYQAIQKALRQRLGPEYISSRMAGGGQKVCYIEGHRVINLANEMFGYNGWAHSITQQNVDFVDLNNGKFYVGVCAFVRVQLKDGSYHEDVGYGVSEGLKSKALSLEKARKEAVTDGLKRALRSFGNALGNCILDKDYLRSLNKLPRQLPLEVDLTKAKRQDLEPSVEEARYNSCRPNMALGHPQLQQVTSPSRPSHAVIPADQDCSSRSLSSSAVESEATHQRKLRQKQLQQQFRERMEKQQVRVSTPSAEKSEAAPPAPPVTHSTPVTVSEPLLEKDFLAGVTQELIKTLEDNSEKWAVTPDAGDGVVKP	~6 subunits and ~8 subunits	
HsRAD52 (human RAD52), wild type, Gal4 fusion proteins (natural protein, UniProt P43351 1-418, looked up, RAD52, human, wild type; no chain carries both; Probably the whole protein; also called pGBT9-HsRAD52; pGAD424-HsRAD52; source: yeast two-hybrid fusion, yeast strain Y187) MSGTEEAILGGRDSHPAAGGGSVLCFGQCQYTAEEYQAIQKALRQRLGPEYISSRMAGGGQKVCYIEGHRVINLANEMFGYNGWAHSITQQNVDFVDLNNGKFYVGVCAFVRVQLKDGSYHEDVGYGVSEGLKSKALSLEKARKEAVTDGLKRALRSFGNALGNCILDKDYLRSLNKLPRQLPLEVDLTKAKRQDLEPSVEEARYNSCRPNMALGHPQLQQVTSPSRPSHAVIPADQDCSSRSLSSSAVESEATHQRKLRQKQLQQQFRERMEKQQVRVSTPSAEKSEAAPPAPPVTHSTPVTVSEPLLEKDFLAGVTQELIKTLEDNSEKWAVTPDAGDGVVKPSSRADPAQTSDTLALNNQMVTQNRTPHSVCHQKPQAKSGSWDLQTYSADQRTTGNWESHRKSQDMKKRKYDPS		80 fold
